According to IntAct's records for PubMed 34799561:

B1: DNA damage-inducible transcript 3 protein (Homo sapiens), P35638 (parent)
chain: MAAESLPFSFGTLSSWELEAWYEDLQEVLSSDENGGTYVSPPGNEEEESKIFTTLDPASLAWLTEEEPEPAEVTSTSQSPHSPDSSQSSLAQEEEEEDQGRTRKRKQSGHSPARAGKQRMKEKEQENERKVAQLAEENERLKQEIERLTREVEATRRALIDRMVNLHQA
B2: Ubiquitin-associated protein 2-like (Homo sapiens), Q14157 (parent)
chain: MMTSVGTNRARGNWEQPQNQNQTQHKQRPQATAEQIRLAQMISDHNDADFEEKVKQLIDITGKNQDECVIALHDCNGDVNRAINVLLEGNPDTHSWEMVGKKKGVSGQKDGGQTESNEEGKENRDRDRDYSRRRGGPPRRGRGASRGREFRGQENGLDGTKSGGPSGRGTERGRRGRGRGRGGSGRRGGRFSAQGMGTFNPADYAEPANTDDNYGNSSGNTWNNTGHFEPDDGTSAWRTATEEWGTEDWNEDLSETKIFTASNVSSVPLPAENVTITAGQRIDLAVLLGKTPSTMENDSSNLDPSQAPSLAQPLVFSNSKQTAISQPASGNTFSHHSMVSMLGKGFGDVGEAKGGSTTGSQFLEQFKTAQALAQLAAQHSQSGSTTTSSWDMGSTTQSPSLVQYDLKNPSDSAVHSPFTKRQAFTPSSTMMEVFLQEKSPAVATSTAAPPPPSSPLPSKSTSAPQMSPGSSDNQSSSPQPAQQKLKQQKKKASLTSKIPALAVEMPGSADISGLNLQFGALQFGSEPVLSDYESTPTTSASSSQAPSSLYTSTASESSSTISSNQSQESGYQSGPIQSTTYTSQNNAQGPLYEQRSTQTRRYPSSISSSPQKDLTQAKNGFSSVQATQLQTTQSVEGATGSAVKSDSPSTSSIPPLNETVSAASLLTTTNQHSSSLGGLSHSEEIPNTTTTQHSSTLSTQQNTLSSSTSSGRTSTSTLLHTSVESEANLHSSSSTFSTTSSTVSAPPPVVSVSSSLNSGSSLGLSLGSNSTVTASTRSSVATTSGKAPPNLPPGVPPLLPNPYIMAPGLLHAYPPQVYGYDDLQMLQTRFPLDYYSIPFPTPTTPLTGRDGSLASNPYSGDLTKFGRGDASSPAPATTLAQPQQNQTQTHHTTQQTFLNPALPPGYSYTSLPYYTGVPGLPSTFQYGPAVFPVAPTSSKQHGVNVSVNASATPFQQPSGYGSHGYNTGVSVTSSNTGVPDISGSVYSKTQQSFEKQGFHSGTPAASFNLPSALGSGGPINPATAAAYPPAPFMHILTPHQQPHSQILHHHLQQDGQTGSGQRSQTSSIPQKPQTNKSAYNSYSWGAN

Variants of: B1
Details: with G3BP1, Q13283
Target sequence in this assay (Q13283 whole entry, looked up): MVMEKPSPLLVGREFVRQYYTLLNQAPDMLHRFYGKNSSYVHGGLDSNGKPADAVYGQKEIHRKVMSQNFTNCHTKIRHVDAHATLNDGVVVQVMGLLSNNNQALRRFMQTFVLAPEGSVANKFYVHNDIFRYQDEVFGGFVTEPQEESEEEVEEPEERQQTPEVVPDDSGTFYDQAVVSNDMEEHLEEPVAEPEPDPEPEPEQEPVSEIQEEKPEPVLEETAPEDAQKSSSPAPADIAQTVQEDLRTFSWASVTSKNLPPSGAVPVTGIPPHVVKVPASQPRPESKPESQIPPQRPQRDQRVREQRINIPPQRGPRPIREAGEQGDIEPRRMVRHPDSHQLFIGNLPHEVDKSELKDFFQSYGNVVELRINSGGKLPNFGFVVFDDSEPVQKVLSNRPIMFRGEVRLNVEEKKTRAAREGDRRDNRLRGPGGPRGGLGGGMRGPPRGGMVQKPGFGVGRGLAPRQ

| Variant | effect of a mutation on the interaction |
| --- | --- |
| MAAESLPFSAATLSSWELEAWYEDLQEVLSSDENGGTYVSPPGNEEEESKIFTTLDPASLAWLTEEEPEPAEVTSTSQSPHSPDSSQSSLAQEEEEEDQGRTRKRKQSGHSPARAGKQRMKEKEQENERKVAQLAEENERLKQEIERLTREVEATRRALIDRMVNLHQA [F10A;G11A] | disrupting interaction strength |

Variants of: B2
Details: with G3BP1, Q13283
Target sequence in this assay (Q13283 whole entry, looked up): as the sequence (Q13283 whole entry, looked up) above

| Variant | effect of a mutation on the interaction |
| --- | --- |
| F518A;F523A | disrupting interaction strength |

Variants of: B2
Details: with G3BP1, Q13283
Remark: another data set of the same source
Target sequence in this assay (Q13283 whole entry, looked up): as the sequence (Q13283 whole entry, looked up) above

| Variant | effect of a mutation on the interaction |
| --- | --- |
| F518A;F523A | decreasing interaction strength |
